Assay results from patent US20190367586A1.

Target: RSV strain 18537 pre-fusion F (Ds-Cav1) (human respiratory syncytial virus subgroup B strain 18537) (UniProt P13843)
Assay: ELISA, F protein coated

Sequence of RSV strain 18537 pre-fusion F (Ds-Cav1) (human respiratory syncytial virus subgroup B strain 18537) (P13843 26-513): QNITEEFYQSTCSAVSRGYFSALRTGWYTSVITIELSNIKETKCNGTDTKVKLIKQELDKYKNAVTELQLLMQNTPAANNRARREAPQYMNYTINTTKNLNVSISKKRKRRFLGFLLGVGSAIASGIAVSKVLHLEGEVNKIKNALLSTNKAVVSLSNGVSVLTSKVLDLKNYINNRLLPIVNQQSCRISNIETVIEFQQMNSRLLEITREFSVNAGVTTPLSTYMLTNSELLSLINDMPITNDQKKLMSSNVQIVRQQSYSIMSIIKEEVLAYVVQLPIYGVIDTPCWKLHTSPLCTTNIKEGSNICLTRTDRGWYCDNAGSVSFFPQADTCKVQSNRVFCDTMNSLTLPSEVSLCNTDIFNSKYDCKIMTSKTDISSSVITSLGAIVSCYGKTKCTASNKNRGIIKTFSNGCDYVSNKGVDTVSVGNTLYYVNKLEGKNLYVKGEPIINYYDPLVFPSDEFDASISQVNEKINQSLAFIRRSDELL

| Substance | EC50 |
| --- | --- |
| motavizumab (antibody) | 0.022 µg/mL |
| palivizumab (antibody) | 0.046 µg/mL |
